From patent US20210252150A1

What was measured:
[1] = molecular target: HA of A/Texas/36/1991 (H1N1) (influenza A virus (H1N1))
[2] = molecular target: HA of A/Solomon Islands/03/2006 (H1N1) (influenza A virus (H1N1))
[3] = molecular target: HA of A/Texas/50/2012 (H3N2) (influenza A virus (H3N2))

Row | Binder | EC50 [1] [µg/mL] | EC50 [2] [µg/mL] | EC50 [3] [µg/mL]
1 | rFluA-20 heavy chain mutant Y34A (antibody, V domains shown) VH: QVQLQESGPGLVKPSETLSLTCSVSGVSVTSDIAYWTWIRQPPGKGLEWIGYIFYNGDTNYNPSLKSRVTMSIDTSKNEFSLRLTSVTAADTAVYFCARGTEDLGYCSSGSCPNHWGQGTLVTVSS VL: DIQMTQSPSSLSASIGDRVTITCRPSQNIRSFLNWFQHKPGKAPKLLIYAASNLQSGVPSRFSGSGSGTEFTLTIRSLQPEDFATYYCQQSYNTPPTFGQGTKVEIK | 0.05 | 0.04 | 0.16
2 | rFluA-20 heavy chain mutant T96A (antibody, V domains shown) VH: QVQLQESGPGLVKPSETLSLTCSVSGVSVTSDIYYWTWIRQPPGKGLEWIGYIFYNGDTNYNPSLKSRVTMSIDTSKNEFSLRLTSVTAADTAVYFCARGAEDLGYCSSGSCPNHWGQGTLVTVSS VL: DIQMTQSPSSLSASIGDRVTITCRPSQNIRSFLNWFQHKPGKAPKLLIYAASNLQSGVPSRFSGSGSGTEFTLTIRSLQPEDFATYYCQQSYNTPPTFGQGTKVEIK | 0.04 | 0.03 | 0.07
3 | rFluA-20 heavy chain mutant E97A (antibody, V domains shown) VH: QVQLQESGPGLVKPSETLSLTCSVSGVSVTSDIYYWTWIRQPPGKGLEWIGYIFYNGDTNYNPSLKSRVTMSIDTSKNEFSLRLTSVTAADTAVYFCARGTADLGYCSSGSCPNHWGQGTLVTVSS VL: DIQMTQSPSSLSASIGDRVTITCRPSQNIRSFLNWFQHKPGKAPKLLIYAASNLQSGVPSRFSGSGSGTEFTLTIRSLQPEDFATYYCQQSYNTPPTFGQGTKVEIK | 0.05 | 0.07 | 0.18
